The target in assay [1] is wild-type mouse myosin-15 motor domain with 2 IQ motifs (MD-2IQ), heavy chain (mouse). Put plainly: SEC; heavy chain, ELC and RLC co-expressed in Sf9; FLAG M2 resin, MonoQ, then Superdex 200 in 10 mM Mops, 100 mM KCl, 0.1 mM EGTA, pH 7.0; single peak. (In general: SEC sorts molecules by how far they enter the pores of the column.)
Assay [2] addresses F-actin (UniProt P68133). The note with it: cited from earlier work.
Assay [3] concerns the target F-actin (UniProt P68133). As to conditions: cited from earlier work. The source holds these as a separate data set.
Assay [4] addresses chicken skeletal muscle actin (ADP F-actin) (chicken) (UniProt P68139). The assay can be described thus: cryo-EM structure; Mg-ADP state: wild-type myosin-15 incubated with 5 mM ADP-Mg for 20 min, applied to 0.6 uM ADP F-actin on the grid; else as for the rigor samples.
The target is the same in assay [5]. The assay can be described thus: cryo-EM structure; rigor state: 6 uM myosin-15 treated with apyrase (10 U/ml), applied twice to 0.6 uM ADP F-actin on the grid; KMEI buffer with 0.01% NP-40 substitute; 25°C; helical reconstruction, symmetry expansion and focused classification.

Like-named read-outs stand apart in the source and are kept apart here.

Among the data in publication PMC9299544 are stoichiometry N and Kd values, retold here.

The stoichiometry N is a count of units in the complex or per binding partner. Substance “bovine smooth muscle essential light chain (ELC; MYL6) (from UniProt P60661 1-151) (natural protein)” registered a stoichiometry N in assay [1] of 1.
On the same count and under the same terms, next, “chicken regulatory light chain (RLC; MYL12B) (natural protein)”: 1.
For orientation: Kd means a measure of binding affinity in units of concentration. As for “myosin-15 motor domain (from UniProt Q9QZZ4)”, the Kd with F-actin [2] was 200 nM; with F-actin [3] it was 310 nM.
For “wild-type mouse myosin-15 motor domain with 2 IQ motifs (MD-2IQ), as the myosin-15:ELC:RLC complex (from UniProt P60661 1-151)”, the stoichiometry N in assay [4] and in assay [5] was 1 each time.
